Experimental data reported in PMC4980433 (Molecular Cell, 2016).
Blank lines part the entries; values can stand above or below the binder they belong to.

How the values were obtained:
TNKS SAM Y1073A, O95271 = target: T1, TNKS SAM Y1073A, O95271; assay: ITC; details: chain shown with the change; N = 0.72±0.01
T1 chain: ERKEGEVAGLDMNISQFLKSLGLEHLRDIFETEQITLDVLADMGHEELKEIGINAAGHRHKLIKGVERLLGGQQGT

TNKS SAM Y1073A = TNKS SAM Y1073A (human, UniProt O95271 1018-1093, Y1073A^T1); assay: ITC
[1] = target: the molecule itself; assay: crystal structure; SAM domain mutants crystallized; head-to-tail (EH-ML) filaments in the crystals; molecular replacement
[2] = target: the molecule itself; assay: ultracentrifugation sedimentation assay; purified SAM domains (25 μM) centrifuged at an average 200,000 x g, 20°C, 1 hr; total, supernatant and pellet on SDS-PAGE with Coomassie staining; polymers partition into the pellet; proteins of Figure 5A affinity purified

Kd (TNKS SAM Y1073A, O95271): 820 nM
other: ΔH (TNKS SAM Y1073A, O95271): -6 kcal/mol
other: ΔS (TNKS SAM Y1073A, O95271): 7.7 cal/mol/deg
Kd (TNKS SAM Y1073A): 860 nM
B1: TNKS SAM V1056W (domain or fragment)
chain: ERKEGEVAGLDMNISQFLKSLGLEHLRDIFETEQITLDWLADMGHEELKEIGINAYGHRHKLIKGVERLLGGQQGT

B2: TNKS SAM D1055R (domain or fragment, human, UniProt O95271 1018-1093, looked up)
chain: ERKEGEVAGLDMNISQFLKSLGLEHLRDIFETEQITLRVLADMGHEELKEIGINAYGHRHKLIKGVERLLGGQQGT
notes: SAM domain of human Tankyrase (TNKS), residues 1018-1093, with D1055R; Polymer-breaking mutant used for crystallization (two crystal forms); also called TNKS D1055R^T1 SAM domain
binding result [1]: binds

B3: TNKS2 SAM domain (867-940), wild type (domain or fragment, human, UniProt Q9H2K2 867-940, looked up)
chain: EKKEVPGVDFSITQFVRNLGLEHLMDIFEREQITLDVLVEMGHKELKEIGINAYGHRHKLIKGVERLISGQQGL
notes: SAM domain of human Tankyrase 2 (TNKS2, ARTD6), residues 867-940; Forms polydisperse polymers (filaments); theoretical MW about 9 kDa; also called TNKS2 WT
binding result [2]: binds
